Laboratory results taken from PMC5444859.

Experiments:
[1] = molecular target: CASV L-Cterm (C-terminal 326 amino acids of the California Academy of Sciences virus L protein, residues 1721-2046) (California Academy of Sciences virus (CASV)) (UniProt J7HBG8); assay: SEC
[2] = molecular target: CASV L-Cterm (C-terminal 326 amino acids of the California Academy of Sciences virus L protein, residues 1721-2046) (California Academy of Sciences virus (CASV)) (UniProt J7HBG8); assay: SAXS
[3] = molecular target: isolated CASV L-Cterm domain 2 (California Academy of Sciences virus (CASV)); assay: SAXS

Substance	stoichiometry N [1]	stoichiometry N [2]	stoichiometry N [3]
CASV L-Cterm (C-terminal 326 amino acids of the California Academy of Sciences virus L protein, residues 1721-2046) (from UniProt J7HBG8 1721-2046) (domain or fragment)	2	2	
isolated CASV L-Cterm domain 2 (domain or fragment)			2
